Data set [1] concerns the target T1, ApOrc1 (Orc1-1) (Aeropyrum pernix, UniProt Q9YEV6 1-395).
T1 sequence: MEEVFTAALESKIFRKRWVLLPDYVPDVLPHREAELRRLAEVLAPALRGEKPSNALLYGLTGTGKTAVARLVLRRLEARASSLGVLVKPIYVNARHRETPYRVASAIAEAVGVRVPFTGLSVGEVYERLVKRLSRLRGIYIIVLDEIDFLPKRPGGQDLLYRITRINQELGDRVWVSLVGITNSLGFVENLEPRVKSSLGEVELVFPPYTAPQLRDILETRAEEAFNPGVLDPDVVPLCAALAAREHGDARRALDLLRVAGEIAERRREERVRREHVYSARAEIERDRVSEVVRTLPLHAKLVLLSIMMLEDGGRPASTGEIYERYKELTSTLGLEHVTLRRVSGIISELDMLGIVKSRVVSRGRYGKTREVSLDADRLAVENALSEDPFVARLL
Nature of the data set: MST; SPR: HBS-EP + 10 mM MgCl2, 2 mM ATP; BLI (room temperature) and MST: EDBS (25 mM Tris-HCl pH 8, 4% sucrose, 4 mM DTT, 80 ug/mL BSA, 10 mM Mg(OAc)2, 2 mM [truncated]); EMSA: 40 mM HEPES-KOH pH 8, 25 mM [truncated], 5% PAGE in TBE. The conditions noted are these: protein: recombinant; label: 5' Cy3. On the technique in general: A gel shift assay detects complexes by their altered migration in electrophoresis.

Data set [2] has as its target T1, ApOrc1 (Orc1-1). The data set can be described thus: SPR; SPR: HBS-EP + 10 mM MgCl2, 2 mM ATP; BLI (room temperature) and MST: EDBS (25 mM Tris-HCl pH 8, 4% sucrose, 4 mM DTT, 80 ug/mL BSA, 10 mM Mg(OAc)2, 2 mM [truncated]); EMSA: 40 mM HEPES-KOH pH 8, 25 mM [truncated], 5% PAGE in TBE. The conditions noted are these: protein: recombinant; label: Biotin-14-dCTP by TdT.

The target in data set [3] is T1, ApOrc1 (Orc1-1). The data set can be described thus: SPR; ATP, Mg2+; SPR: HBS-EP + 10 mM MgCl2, 2 mM ATP; BLI (room temperature) and MST: EDBS (25 mM Tris-HCl pH 8, 4% sucrose, 4 mM DTT, 80 ug/mL BSA, 10 mM Mg(OAc)2, 2 mM [truncated]); EMSA: 40 mM HEPES-KOH pH 8, 25 mM [truncated], 5% PAGE in TBE. To be noted: protein: recombinant; label: 5' biotin (BLI, SPR); fluorescent (MST). A general note: In SPR one partner is held on a chip, and binding of the other changes the refractive index at the surface.

Data set [4] has as its target T2, SSB (Escherichia coli, UniProt P0AGE0 1-178). The data set can be described thus: SPR; no significant difference from R bottom; SPR: HBS-EP + 10 mM MgCl2, 2 mM ATP; BLI (room temperature) and MST: EDBS (25 mM Tris-HCl pH 8, 4% sucrose, 4 mM DTT, 80 ug/mL BSA, 10 mM Mg(OAc)2, 2 mM [truncated]); EMSA: 40 mM HEPES-KOH pH 8, 25 mM [truncated], 5% PAGE in TBE. To be noted: chain copies: 4; label: 5' biotin (BLI, SPR); fluorescent (MST).

Data set [5] concerns the target T1, ApOrc1 (Orc1-1). The data set can be described thus: SPR; highest response; SPR: HBS-EP + 10 mM MgCl2, 2 mM ATP; BLI (room temperature) and MST: EDBS (25 mM Tris-HCl pH 8, 4% sucrose, 4 mM DTT, 80 ug/mL BSA, 10 mM Mg(OAc)2, 2 mM [truncated]); EMSA: 40 mM HEPES-KOH pH 8, 25 mM [truncated], 5% PAGE in TBE. To be noted: protein: recombinant; label: 5' biotin.
For data set [6], the target named is T1, ApOrc1 (Orc1-1). Nature of the data set: SPR; ATP, Mg2+; SPR: HBS-EP + 10 mM MgCl2, 2 mM ATP; BLI (room temperature) and MST: EDBS (25 mM Tris-HCl pH 8, 4% sucrose, 4 mM DTT, 80 ug/mL BSA, 10 mM Mg(OAc)2, 2 mM [truncated]); EMSA: 40 mM HEPES-KOH pH 8, 25 mM [truncated], 5% PAGE in TBE. The conditions noted are these: protein: recombinant; label: 5' biotin (BLI, SPR); fluorescent (MST). This is another data set of the same source.

The target in data set [7] is T2, SSB. The data set can be described thus: SPR; no significant difference from R top; SPR: HBS-EP + 10 mM MgCl2, 2 mM ATP; BLI (room temperature) and MST: EDBS (25 mM Tris-HCl pH 8, 4% sucrose, 4 mM DTT, 80 ug/mL BSA, 10 mM Mg(OAc)2, 2 mM [truncated]); EMSA: 40 mM HEPES-KOH pH 8, 25 mM [truncated], 5% PAGE in TBE. To be noted: chain copies: 4; label: 5' biotin (BLI, SPR); fluorescent (MST).

The target in data set [8] is T1, ApOrc1 (Orc1-1). The data set can be described thus: BLI; higher than L top; SPR: HBS-EP + 10 mM MgCl2, 2 mM ATP; BLI (room temperature) and MST: EDBS (25 mM Tris-HCl pH 8, 4% sucrose, 4 mM DTT, 80 ug/mL BSA, 10 mM Mg(OAc)2, 2 mM [truncated]); EMSA: 40 mM HEPES-KOH pH 8, 25 mM [truncated], 5% PAGE in TBE. The conditions noted are these: protein: recombinant; label: 5' biotin. Background: BLI is a label-free optical method that tracks binding on a fibre tip over time.

The target of data set [9] is T1, ApOrc1 (Orc1-1). Nature of the data set: BLI; among the highest; SPR: HBS-EP + 10 mM MgCl2, 2 mM ATP; BLI (room temperature) and MST: EDBS (25 mM Tris-HCl pH 8, 4% sucrose, 4 mM DTT, 80 ug/mL BSA, 10 mM Mg(OAc)2, 2 mM [truncated]); EMSA: 40 mM HEPES-KOH pH 8, 25 mM [truncated], 5% PAGE in TBE. To be noted: protein: recombinant; label: 5' biotin.

T2 sequence (P0AGE0 whole entry, the tested form may be a part): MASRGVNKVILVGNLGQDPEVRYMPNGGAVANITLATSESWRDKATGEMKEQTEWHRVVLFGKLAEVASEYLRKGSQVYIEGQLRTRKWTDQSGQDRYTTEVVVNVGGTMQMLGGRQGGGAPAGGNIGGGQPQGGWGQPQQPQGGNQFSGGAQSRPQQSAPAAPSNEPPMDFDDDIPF

B1: polyT(70) (ssDNA)
DNA: TTTTTTTTTTTTTTTTTTTTTTTTTTTTTTTTTTTTTTTTTTTTTTTTTTTTTTTTTTTTTTTTTTTTTT
Regarding B1, the binding result with ApOrc1 (Orc1-1) [1] is “binds”.

B2: polyA(70) (ssDNA)
DNA: AAAAAAAAAAAAAAAAAAAAAAAAAAAAAAAAAAAAAAAAAAAAAAAAAAAAAAAAAAAAAAAAAAAAAA
As for B2, the binding result with ApOrc1 (Orc1-1) [1] was “no binding”.

B3: polyA(60) (ssDNA)
DNA: AAAAAAAAAAAAAAAAAAAAAAAAAAAAAAAAAAAAAAAAAAAAAAAAAAAAAAAAAAAA
On to B3, for which the binding result with ApOrc1 (Orc1-1) [2] is listed as “no binding”.

B4: R top (ssDNA)
DNA: CAAATCAAGCTAGAAACAAACAAAGACACACTATAATCCAGAACTGCACAGCCTGA
B4: the binding signal in the data set with ApOrc1 (Orc1-1) [3] was ~0.33 fold SPR response vs R bottom (stated as R bottom 3 times higher). The binding result with SSB [4] is “binds”.
Consider TGTGTCTTTGTTTGTTTCTAGCTTGATTTG (ssDNA) [R1 bottom], for which the binding result with ApOrc1 (Orc1-1) [5] is “binds”.

B5: polyT(60) (ssDNA)
DNA: TTTTTTTTTTTTTTTTTTTTTTTTTTTTTTTTTTTTTTTTTTTTTTTTTTTTTTTTTTTT
As to B5, the binding result with ApOrc1 (Orc1-1) [2] is listed as “binds”.

B6: R bottom (ssDNA)
DNA: TCAGGCTGTGCAGTTCTGGATTATAGTGTGTCTTTGTTTGTTTCTAGCTTGATTTG
With B6, in the data set with ApOrc1 (Orc1-1) [6], the binding signal was ~3 fold SPR response vs R top. For the same molecule, the binding result with SSB [7] is “binds”.

B7: L bottom (ssDNA)
DNA: TTTAAAACTGGGTTTTTGTATCATTATATTGGCATTCTTCAAGAGCACTATTCGGGAGGAGTATACGCTTC
For B7, the binding result with ApOrc1 (Orc1-1) [8] is recorded as “binds”.
Consider TTTAAAACTGGGTTTTTGTATCATTATATTGGCAT (ssDNA) [L2 bottom], for which the binding result with ApOrc1 (Orc1-1) [9] is listed as “binds”.
